The values below come from patent publication US20230414780A1 (VECT HORUS, published 2023).

Numbering of substitutions follows the chain as printed.

Assay [1] addresses T1, human transferrin receptor (hTfR) fused to EGFP, on CHO cells (human, UniProt P02786 1-760). The assay can be described thus: cell-based or functional assay.
Assay [2] addresses T1, human transferrin receptor (hTfR) fused …. As to the kind of experiment: flow cytometry on CHO-hTfR-EGFP cells, 1 hr at 4 C, anti-6His + Alexa647 anti-mouse; ratio to background fluorescence. The procedure: FIGS. 15A-15H: In vitro gene silencing activity of VHH-siGFPst1 bioconjugates. […] CHO-hTfR-EGFP cells were incubated 1 hr at 4° C. with various concentrations of the indicated compounds. Detection of VHHs was performed using a primary mouse anti-6His (1/1000) and an Alexa647-conjugated anti-mouse secondary antibody (1/400). Measurements of cell-surface signal associated to VHH were performed using flow cytometry. The results are expressed as the ratio of Alexa647-associated fluorescence intensity of test compounds to that of background fluorescence. […] The total fluorescence associated to the EGFP protein was then quantified using flow cytometry and rationalized to that of untreated (control) cells (set at 100%) *** p≤0.001. […] The total fluorescence associated with the EGFP protein was then quantified using flow cytometry and rationalized to that of untreated (control) cells (set at 100%). […] CHO-hTfR-EGFP cells were incubated with the indicated compounds at 1 μM during 120 hrs at 37° C. Data were processed and analyzed as described in (B). *** p≤0.001 vs. untreated cells. […] The total fluorescence associated with the EGFP protein was then quantified using flow cytometry and rationalized to that of untreated (control) cells (set at 100%).
(Flow cytometry measures light scatter and fluorescence of single cells or particles in a stream.)

Assay [3] shares this target. The assay can be described thus: flow cytometry on CHO-hTfR-EGFP cells, 1 hr at 4 C, Alexa647 anti-hFc; apparent Kd, mean ± SEM of 3 experiments. The procedure:
(§1) FIGS. 8A-8B: Apparent Kd determination of VHH-Fcs and Fc-VHHs on hTfR- and mTfR-expressing CHO cell lines. (A) CHO-hTfR-EGFP and CHO-mTfR-EGFP cells were incubated 1 hr at 4° C. with various concentrations of VHH-Fcs or Fc-VHHs, detected with an Alexa647-conjugated anti-hFc antibody (1/400). Measurements were performed using flow cytometry. The ratio of fluorescence intensity for each point was normalized with the corresponding EGFP signal (receptor expression) and gave rise to the arbitrary unit. Data are presented as mean±SEM of 3 independent experiments. (B) Characteristics of selected VHH-Fcs and Fc-VHHs: Molecular Weight (Da); Apparent Kd on human TfR (nM); Apparent Kd on mouse TfR (nM). Data are presented as mean±SEM of 3 independent experiments.
(§2) The binding properties of VHH-Fc and Fc-VHH fusion proteins with an affinity for the TfR were tested in flow cytometry experiments, and apparent affinity (K_{d app}) were determined. All experiments were performed in 96 well plates using 2-3×10⁵ cells/well, at 4° C. with shaking. […] After washes, cells were incubated for 1 hr with an Alexa647-conjugated anti-hFc antibody (Jackson ImmunoResearch). After 3 last washes and cells resuspension in PBS, fluorescence was immediately measured using a MACSQuant flow cytometer (Miltenyi), and results were analyzed with the MACSQuant software. […] The VHH-Fc and Fc-VHH K_{d app} were calculated using GraphPad Prism software (FIG. 8-B).

Assay [4] concerns the target T2, mouse transferrin receptor (mTfR) fused to EGFP, on CHO cells (mouse, UniProt Q62351 1-763).
T2 construct: whole, on cells; also called mouse TfR; CHO-mTfR-EGFP; not shown: EGFP
As to the kind of experiment: flow cytometry on CHO-mTfR-EGFP cells, 1 hr at 4 C, Alexa647 anti-hFc; apparent Kd, mean ± SEM of 3 experiments. The procedure:
as §1, §2

The target of assay [5] is T2, mouse transferrin receptor (mTfR) fused …. The assay can be described thus: flow cytometry on CHO-mTfR-EGFP cells, 1 hr at 4 C, Alexa647 anti-mouse; apparent Kd, mean ± SEM of 3 experiments. The procedure: FIGS. 13A-13B: Apparent Kd determination of 13C3-HC-VHH fusions on hTfR- and mTfR-expressing CHO cell lines. (A) CHO-hTfR-EGFP and CHO-mTfR-EGFP cells were incubated 1 hr at 4° C. with various concentrations of 13C3 fusions and detected with an Alexa647-conjugated anti-mouse antibody (1/400). Measurements were performed using flow cytometry. The ratio of fluorescence intensity for each point was normalized with the corresponding EGFP signal (receptor expression) and gave rise to the arbitrary unit. Data are presented as mean±SEM of 3 independent experiments. (B) Characteristics of 13C3 fusions: Molecular Weight (Da); Apparent Kd on human TfR (nM); Apparent Kd on mouse TfR (nM). Data are presented as mean±SEM of 3 independent experiments. NB: no binding, LB: low binding.
(§3) All experiments were performed in 96 well plates using 2×10⁵ cells/well, at 4° C. with shaking. CHO cell lines stably expressing the hTfR or the mTfR fused to EGFP or CHO WT cells were saturated with PBS/BSA 2% solution during 30 min to avoid non-specific binding, followed by incubation with purified VHHs at concentrations ranging from 50 μM to 5 μM for 1 hr. After one wash in PBS/BSA 2%, cells were incubated for 1 hr with an anti-6His tag antibody (mouse), washed twice with PBS/BSA 2%, and incubated for 45 min with an Alexa647-conjugated anti-mouse secondary antibody. After two last washes in PBS/BSA 2%, cells were fixed by incubation for 15 min with PBS/PFA 2%, washed once with PBS and finally resuspended in PBS and stored at 4° C. Fluorescence levels were assessed using an Attune NxT Flow Cytometer (Thermo Fisher Scientific).

Assay [6] has the same target. As to the kind of experiment: apparent Kd, flow cytometry, CHO cells. The procedure: as §3, with “Scientific). […] No labeling of the CHO WT control cells was detected with all the tested VHHs (not shown). The VHH K_{d app} were calculated using GraphPad Prism software (FIG. 11-B; 12-B).” for “Scientific).”

T2 sequence (Q62351 whole entry, the tested form may be a part): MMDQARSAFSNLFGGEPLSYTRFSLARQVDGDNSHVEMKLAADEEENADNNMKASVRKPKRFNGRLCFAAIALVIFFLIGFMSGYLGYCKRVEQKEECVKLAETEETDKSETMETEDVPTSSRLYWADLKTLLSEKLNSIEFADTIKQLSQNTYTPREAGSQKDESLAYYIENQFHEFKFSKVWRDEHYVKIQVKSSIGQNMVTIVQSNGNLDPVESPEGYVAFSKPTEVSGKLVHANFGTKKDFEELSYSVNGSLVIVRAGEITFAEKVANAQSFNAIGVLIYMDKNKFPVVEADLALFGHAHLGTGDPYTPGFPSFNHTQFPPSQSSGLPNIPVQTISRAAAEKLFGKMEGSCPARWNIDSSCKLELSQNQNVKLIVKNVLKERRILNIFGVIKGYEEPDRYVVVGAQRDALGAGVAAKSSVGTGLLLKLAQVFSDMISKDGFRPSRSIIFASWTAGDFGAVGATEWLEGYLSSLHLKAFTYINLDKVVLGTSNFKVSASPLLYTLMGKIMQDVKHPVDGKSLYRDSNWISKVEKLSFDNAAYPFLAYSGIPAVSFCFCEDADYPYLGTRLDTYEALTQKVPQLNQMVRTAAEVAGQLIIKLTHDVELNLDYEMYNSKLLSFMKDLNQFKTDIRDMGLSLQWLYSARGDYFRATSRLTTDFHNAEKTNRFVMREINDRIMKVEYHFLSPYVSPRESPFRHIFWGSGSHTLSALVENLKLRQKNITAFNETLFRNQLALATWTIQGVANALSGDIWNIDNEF
T1 sequence (P02786 whole entry, the tested form may be a part): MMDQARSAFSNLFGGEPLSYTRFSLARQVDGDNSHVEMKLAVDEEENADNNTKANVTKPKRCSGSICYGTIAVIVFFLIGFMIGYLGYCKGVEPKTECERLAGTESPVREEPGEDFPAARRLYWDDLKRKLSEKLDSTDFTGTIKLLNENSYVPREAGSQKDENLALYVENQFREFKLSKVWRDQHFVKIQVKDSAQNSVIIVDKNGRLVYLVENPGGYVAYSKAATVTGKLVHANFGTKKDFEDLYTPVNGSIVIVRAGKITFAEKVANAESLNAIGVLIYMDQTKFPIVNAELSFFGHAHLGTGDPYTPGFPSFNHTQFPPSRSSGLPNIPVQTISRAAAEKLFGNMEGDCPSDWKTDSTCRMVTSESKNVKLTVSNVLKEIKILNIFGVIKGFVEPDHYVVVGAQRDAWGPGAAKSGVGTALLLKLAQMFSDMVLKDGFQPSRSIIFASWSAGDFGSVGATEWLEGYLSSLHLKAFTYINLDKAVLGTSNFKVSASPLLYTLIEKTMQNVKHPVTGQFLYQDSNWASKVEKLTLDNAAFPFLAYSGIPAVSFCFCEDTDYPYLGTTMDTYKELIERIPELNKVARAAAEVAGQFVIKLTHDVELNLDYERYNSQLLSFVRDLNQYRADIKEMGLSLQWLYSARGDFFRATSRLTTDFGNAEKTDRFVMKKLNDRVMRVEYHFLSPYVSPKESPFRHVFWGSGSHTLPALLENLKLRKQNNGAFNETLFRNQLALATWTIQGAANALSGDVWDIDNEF

B1: VHH A-siGFPst1 bioconjugate (VHH)
VHH: EVQLVESGGGVVQPGGSLKLSCVASGTDFSINFIRWYRQAPGKQREFVAGFTATGNTNYADSMKGRFTISRDNTKNAVYLQIDSLKPEDTAVYYCYMLDKWGQGTQVTVSS
modifications: siGFPst1 siRNA linked by azide/DBCO click chemistry to the Gln of the C-terminal Q-tag
notes: not shown: C-terminal tag with His tag and Q-tag (Q-tagged VHH)
Regarding B1, in assay [1], the “IC50 of reduction of GFP protein levels, 6-hour pulse and chase to 120 hrs” value was determined as 1.24 nM; the “IC50 of reduction of GFP protein levels, free uptake 120 hrs” value came out at 2.73 nM. Further, the “EC50 (read off the curve)” value in assay [2] was roughly 3 nM.

B2: Fc-VHH A (Fc fusion)
VHH: B1 VHH
modifications: Genetic fusion with the VHH at the C-terminus of a human IgG1 Fc. It forms a homodimer, so it is bivalent.
notes: not shown: Human IgG1 Fc of the pINFUSE-IgG1-Fc2 vector (InvivoGen), N-terminal to the VHH, and any junction or linker residues
In the case of B2, the results for the Kd in assay [3] and in assay [4] were 1.3 nM and 22 nM, respectively.

B3: Fc-VHH B (Fc fusion)
VHH: EVQLVESGGGVVQPGGSLRLSCAASGEIFSINFMRWYRQAPGKQREWVAGFTRDGSTNYPDSAKGRFTISRDNAKNTVYLQIDSLKPEDTAVYYCYMLDTWGQGTQVTVSS
modifications: Genetic fusion with the VHH at the C-terminus of a human IgG1 Fc. It forms a homodimer, so it is bivalent.
notes: as for B2
Turning to B3, the Kd in assay [3] was 1.5 nM; in assay [4] it was 51 nM.

B4: VHH B-Fc (Fc fusion)
chain: B3 VHH
notes: not shown: human IgG1 Fc fragment of the pINFUSE-IgG1-Fc2 vector (InvivoGen)
As to B4, the Kd in assay [3] came to 1.2 nM; in assay [4], 0.61 nM.

B5: 13C3-HC-VHH A (antibody, mouse IgG1)
heavy: QVQLQQSGPELVRPGVSVKISCKGSGYTFTDYAMHWVKQSHAKSLEWIGVISTKYGKTNYNQKFKGKATMTVDKSSSTAYMELARLTSEDSAIYYCARGDDGYSWGQGTSVTVSSAKTTPPSVYPLAPGSAAQTNSMVTLGCLVKGYFPEPVTVTWNSGSLSSGVHTFPAVLQSDLYTLSSSVTVPSSTWPSETVTCNVAHPASSTKVDKKIVPRDCGCKPCICTVPEVSSVFIFPPKPKDVLTITLTPKVTCVVVDISKDDPEVQFSWFVDDVEVHTAQTQPREEQFNSTFRSVSELPIMHQDWLNGKEFKCRVNSAAFPAPIEKTISKTKGRPKAPQVYTIPPPKEQMAKDKVSLTCMITDFFPEDITVEWQWNGQPAENYKNTQPIMDTDGSYFVYSKLNVQKSNWEAGNTFTCSVLHEGLHNHHTEKSLSHSPGGGGGMAEVQLVESGGGVVQPGGSLKLSCVASGTDFSINFIRWYRQAPGKQREFVAGFTATGNTNYADSMKGRFTISRDNTKNAVYLQIDSLKPEDTAVYYCYMLDKWGQGTQVTVSSAAA
light: DVVMTQTPLSLPVSLGDQASISCRSGQSLVHSNGNTYLHWYLQKPGQSPKLLIYTVSNRFSGVPDRFSGSGSGSDFTLKISRVEAEDLGVYFCSQNTFVPWTFGGGTKLEIKRADAAPTVSIFPPSSEQLTSGGASVVCFLNNFYPKDINVKWKIDGSERQNGVLNSWTDQDSKDSTYSMSSTLTLTKDEYERHNSYTCEATHKTSTSPIVKSFNRNEC
notes: mouse IgG1 13C3 (anti beta-amyloid protofibril) with VHH A at the C-ter of each heavy chain
For the molecule B5, the Kd in assay [5] was 11.3 nM.

B6: 13C3-HC-VHH A8 (antibody)
heavy: B5 heavy with D543A
light: B5 light
Regarding B6, the Kd in assay [6] turned out to be 315 nM.

B7: 13C3-HC-VHH A6 (antibody)
heavy: B5 heavy with M541A
light: B5 light
As to B7, the Kd in assay [5] stood at 23 nM.

B8: 13C3-LC-VHH A (antibody)
light: DVVMTQTPLSLPVSLGDQASISCRSGQSLVHSNGNTYLHWYLQKPGQSPKLLIYTVSNRFSGVPDRFSGSGSGSDFTLKISRVEAEDLGVYFCSQNTFVPWTFGGGTKLEIKRADAAPTVSIFPPSSEQLTSGGASVVCFLNNFYPKDINVKWKIDGSERQNGVLNSWTDQDSKDSTYSMSSTLTLTKDEYERHNSYTCEATHKTSTSPIVKSFNRNECSGSGGGGGMAEVQLVESGGGVVQPGGSLKLSCVASGTDFSINFIRWYRQAPGKQREFVAGFTATGNTNYADSMKGRFTISRDNTKNAVYLQIDSLKPEDTAVYYCYMLDKWGQGTQVTVSSAAA
heavy: QVQLQQSGPELVRPGVSVKISCKGSGYTFTDYAMHWVKQSHAKSLEWIGVISTKYGKTNYNQKFKGKATMTVDKSSSTAYMELARLTSEDSAIYYCARGDDGYSWGQGTSVTVSSAKTTPPSVYPLAPGSAAQTNSMVTLGCLVKGYFPEPVTVTWNSGSLSSGVHTFPAVLQSDLYTLSSSVTVPSSTWPSETVTCNVAHPASSTKVDKKIVPRDCGCKPCICTVPEVSSVFIFPPKPKDVLTITLTPKVTCVVVDISKDDPEVQFSWFVDDVEVHTAQTQPREEQFNSTFRSVSELPIMHQDWLNGKEFKCRVNSAAFPAPIEKTISKTKGRPKAPQVYTIPPPKEQMAKDKVSLTCMITDFFPEDITVEWQWNGQPAENYKNTQPIMDTDGSYFVYSKLNVQKSNWEAGNTFTCSVLHEGLHNHHTEKSLSHSPG
With B8, the Kd in assay [6] stood at 106 nM.

A word on the EC50 (read off the curve): it is the concentration at which the effect is half-maximal.
